B1: Imdevimab (antibody, V domains shown)
VH: QVQLVESGGGVVQPGRSLRLSCAASGFTFSNYAMYWVRQAPGKGLEWVAVISYDGSNKYYADSVKGRFTISRDNSKNTLYLQMNSLRTEDTAVYYCASGSDYGDYLLVYWGQGTLVTVSS
VL: QSALTQPASVSGSPGQSITISCTGTSSDVGGYNYVSWYQQHPGKAPKLMIYDVSKRPSGVSNRFSGSKSGNTASLTISGLQSEDEADYYCNSLTSISTWVFGGGTKLTVL
B2: Adintrevimab (antibody, V domains shown)
VH: EVQLVESGGGLVKPGGSLRLSCAASGFTFSSYYMNWVRQAPGKGLEWVSSISEDGYSTYYPDSLKGRFTISRDSAKNSLYLQMNSLRADDTAVYYCARDFSGHTAWAGTGFEYWGQGTLVTVSS
VL: QSVLTQPPSVSGAPGQRITISCTGSSSNIGAGYDVHWYQQLPGTAPKLLIYGSSSRNSGVPDRFSGSKSGTSASLAITGLQAEDEADYYCQSYDSSLSVLYTFGTGTKVTVL

Experiments:
[1] = target: SARS-CoV-2 δ variant spike protein, cell-expressed (SARS-CoV-2); assay: flow cytometry (Mock 2.5)
[2] = target: α (SARS-CoV-2); assay: flow cytometry (Mock 2.5)
[3] = target: β (SARS-CoV-2); assay: flow cytometry (Mock 2.5)
[4] = target: γ (SARS-CoV-2); assay: flow cytometry (Mock 2.5)
[5] = target: ε (SARS-CoV-2); assay: flow cytometry (Mock 2.5)
[6] = target: ι (SARS-CoV-2); assay: flow cytometry (Mock 2.5)
[7] = target: κ (SARS-CoV-2); assay: flow cytometry (Mock 2.5)
[8] = target: T1, SARS-CoV-2 omicron variant B.1.1.529 Spike ectodomain (tri-S, HexaPro) (SARS-CoV-2), P0DTC2; conditions: remark: other sources report otherwise
[9] = target: SARS-CoV-2 delta plus variant RBD (SARS-CoV-2); assay: ELISA; conditions: remark: other sources report otherwise
[10] = target: SARS-CoV-2 delta variant B.1.617.2/3 RBD domain (SARS-CoV-2); assay: ELISA; conditions: remark: other sources report otherwise
[11] = target: SARS-CoV-2 kappa variant B.1.617.1/3 RBD domain (SARS-CoV-2); assay: ELISA; conditions: remark: other sources report otherwise
[12] = target: SARS-CoV-2 omicron variant B.1.1.529 RBD domain (SARS-CoV-2); assay: ELISA; unit from paragraph 452, none printed in the heatmap; conditions: remark: other sources report otherwise
[13] = target: T1, SARS-CoV-2 omicron variant B.1.1.529 …; assay: as above; conditions: remark: other sources report otherwise

| Binder | log10 ΔgMFI [1] | log10 ΔgMFI [2] | log10 ΔgMFI [3] | log10 ΔgMFI [4] | log10 ΔgMFI [5] | log10 ΔgMFI [6] | log10 ΔgMFI [7] | IC50 [8] [µg/mL] | OD405nm [9] | OD405nm [10] | OD405nm [11] | EC50 [12] [µg/mL] | EC50 [13] [µg/mL] |
| --- | --- | --- | --- | --- | --- | --- | --- | --- | --- | --- | --- | --- | --- |
| B1 | 4.5 | 4.4 | 3.9 | 4.6 | 4.5 | 4.9 | 4.7 |  |  |  |  |  |  |
| B2 |  |  |  |  |  |  |  | > 2 | 3.4 | 3.4 | 3.6 | 0.056 | 0.009 |
